Reference: paper PMC2801267

Tests used:
[1] = target: Ku70/80 heterodimer (Ku);DNA-PKcs (human? (HeLa cells);human? (HeLa cells), UniProt P12956;P13010;P78527 1-609;1-732;1-4128, |); assay: biotin pull-down
Ku70/80 heterodimer (Ku) = Ku70/80 heterodimer (Ku) (human? (HeLa cells), UniProt P12956;P13010 1-609;1-732); assay: biotin pull-down
Sequence of Ku70/80 heterodimer (Ku) (P12956 whole entry, chain 1 of 2): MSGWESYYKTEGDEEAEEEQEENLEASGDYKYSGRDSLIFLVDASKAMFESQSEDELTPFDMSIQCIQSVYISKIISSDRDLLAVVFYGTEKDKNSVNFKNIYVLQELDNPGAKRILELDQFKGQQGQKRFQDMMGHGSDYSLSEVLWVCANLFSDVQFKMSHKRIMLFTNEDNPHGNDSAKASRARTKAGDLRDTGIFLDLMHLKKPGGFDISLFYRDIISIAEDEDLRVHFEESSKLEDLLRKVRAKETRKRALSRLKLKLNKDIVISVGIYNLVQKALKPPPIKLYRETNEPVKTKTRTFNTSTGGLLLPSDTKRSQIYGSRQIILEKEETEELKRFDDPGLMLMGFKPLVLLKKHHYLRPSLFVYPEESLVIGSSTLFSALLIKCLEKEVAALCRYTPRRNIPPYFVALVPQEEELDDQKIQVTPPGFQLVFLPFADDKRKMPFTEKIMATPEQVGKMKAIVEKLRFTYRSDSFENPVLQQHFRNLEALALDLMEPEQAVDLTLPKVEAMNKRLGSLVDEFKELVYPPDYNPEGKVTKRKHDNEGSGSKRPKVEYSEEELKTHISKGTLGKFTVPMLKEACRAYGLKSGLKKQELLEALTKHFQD
Sequence of Ku70/80 heterodimer (Ku) (P13010 whole entry, chain 2 of 2): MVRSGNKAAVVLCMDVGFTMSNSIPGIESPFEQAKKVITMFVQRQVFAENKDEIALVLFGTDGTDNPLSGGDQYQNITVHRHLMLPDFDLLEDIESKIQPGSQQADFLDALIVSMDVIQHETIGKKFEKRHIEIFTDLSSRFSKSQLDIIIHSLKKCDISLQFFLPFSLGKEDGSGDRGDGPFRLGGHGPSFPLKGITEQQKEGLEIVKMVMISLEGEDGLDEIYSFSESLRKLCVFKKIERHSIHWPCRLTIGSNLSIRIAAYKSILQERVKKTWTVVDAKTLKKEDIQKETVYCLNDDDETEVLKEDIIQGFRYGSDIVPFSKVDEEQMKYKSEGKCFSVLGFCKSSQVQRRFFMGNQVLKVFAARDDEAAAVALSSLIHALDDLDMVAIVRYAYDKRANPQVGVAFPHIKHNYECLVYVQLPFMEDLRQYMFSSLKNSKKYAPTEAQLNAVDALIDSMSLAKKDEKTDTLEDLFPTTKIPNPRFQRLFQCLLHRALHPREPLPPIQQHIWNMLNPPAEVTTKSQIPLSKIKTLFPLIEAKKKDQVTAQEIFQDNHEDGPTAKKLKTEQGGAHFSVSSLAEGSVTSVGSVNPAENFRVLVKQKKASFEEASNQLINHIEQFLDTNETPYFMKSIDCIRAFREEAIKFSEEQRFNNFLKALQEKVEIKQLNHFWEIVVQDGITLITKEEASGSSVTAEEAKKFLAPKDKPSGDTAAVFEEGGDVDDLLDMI

B1: 1 x biotin 40-bp dsDNA (dsDNA)
DNA 1: GGATACACAACAGACCGCAACACTCAGATTACTTTTCGCC
DNA 2: GGCGAAAAGTAATCTGAGTGTTGCGGTCTGTTGTGTATCC
modifications: 5'-biotin on oligo 1
binding result [1]: binds
binding result (Ku70/80 heterodimer (Ku)): binds
